Here are results for 22 sequences from the DeepSol protein solubility set.

The data set in a line: soluble on expression in E. coli; label from the status in PepcDB or PDB records.
Take “MPGALSHIRVLDLSRVLAGPWAGQILADLGAEVIKIERPGSGDDTRAWGPPFLKDAEGNDTSEAAYYLSANRNKKSVTVDFTQPEGQRIVRELAAKADILLENFKVGGLKAYGLDYESLKQVNPKLIYCSITGFGQSGPYAKRAGYDFMIQGLGGLMSLTGRADNEEGAGPVKVGVALTDILTGLYSSTAVLAALAHRDVSGIGQHIDMALLDVQVACLANQTLNYLTTGVPPRRLGNAHPNIVPYQDFPTADGDMILTVGNDSQFRKFAELADHPEWADDPRFATNKARVANREVLIPLIRQATVLHTTAEWILSLERAGVPCGPINDLAQVFADPQVQARGLRVELPHPLAGTVPQVASPIRLSETPVEYRNPPPTLGQHTDEVLETLLGLDAAALERLRDGKVI”: the “soluble on expression in E. coli” value is recorded as “not soluble”.

Regarding “MVTEQEIEAIGKTLVDPKQPLQARFRALFTLRGLGGPDAISWISRGFEDSSALLKHELAYCLGQMRDVRAIPVLVGVLQDTSQEPMVRHEAGEALGAIGNPEVLGLLKQYSTDPVVEVAETCQLAVGRLEWLQQHPGEATCAGPYLSVDPAPPAAEQDVGRLREALLDEARPLFERYRAMFALRNVGGKEAALALAEGLQCGSALFRHEVGYVLGQLQHEAAVPGLAATLARTTESPMVRHECAEALGAIARPACLAALREHIEDPEQVVRESCEVALDMYEYESSQDFQYADGLERLRPPP”, the “soluble on expression in E. coli” value is on record as “soluble”. The same measure for “MGSDKIHHHHHHMATLTTNTPIATGSTFSAASLQFLNKLAQNNSRDWFKAHQAEYEETVRTPALQFIEQMQPSILALSPRLTAVPKKVGGSLMRPQRDSRFSKDKTPYKTNIGIQFRHFQGKDVHAPGLYLHIAEDGCFIAAGIWHPESKALNAIRTCIDENPNGYKKALQTLQNHGFTMDGDSLTRPPKGFDKNHPMLTELKRKDFIAVKNIAFEELCRPDAACFCAEQFAHCTQLMAYLCFALDLDF”: “not soluble”; for “VTYNLEKRPTTIVLINDTPLNVLLDTGADTSVLTTAHYNRLKYRGRKYQGTGIGGVGGNVETFSTPVTIKKKGRHIKTRMLVADIPVTILGRDILQDLGAKLVL”: “soluble”. The same measure for “GSMKPMGPNDYMVIGLARIDDRLIHGQVATRWTKETNVSRIIVVSDEVAADTVRKTLLTQVAPPGVTAHVVDVAKMIRVYNNPKYAGERVMLLFTNPTDVERLVEGGVKITSVNVGGMAFRQGKTQVNNAVSVDEKDIEAFKKLNARGIELEVRKVSTDPKLKMMDLISKIDK”: “soluble”.

For the sequence “MGHHHHHHSHMDDPLLVELQAEDYWYEAYNMRTGARGVFPAYYAIEVTKEPEHMAALAKNSDWVDQFRVKFLGSVQVPYHKGNDVLCAAMQKIATTRRLTVHFNPPSSCVLEISVRGVKIGVKADDSQEAKGNKCSHFFQLKNISFCGYHPKNNKYFGFITKHPADHRFACHVFVSEDSTKALAESVGRAFQQFYKQFVEYTCPT”, the “soluble on expression in E. coli” value is given as “soluble”.

As for “RARADKQHVLDMLFSAFEKHQYYNLKDLVDITKQPVVYLKEILKEIGVQNVKGIHKNTWELKPEYRHYQ”, the “soluble on expression in E. coli” value is on record as “soluble”. On to “QALQTLVEKISIVFFQKPFLHQATFNRRLKTTGGRYHLASHHLDFNPTVFLKYGQEELEKVIKHELCHYHLHLAGKGYQHKDKDFKELLAKTGGARYAPPLVERKKAVFHQYQCQSCGEVILRKRRIDTTRYVCGKCHGRLSWQ”, for which the “soluble on expression in E. coli” value is listed as “not soluble”.

Consider “MRGSHHHHHHGSVEYTPWLIAGLGNPGNKYYGTRHNVGFEMVDRIAAEEGITMNTEQSKSLLGIGSIGEVPVLVVKPQSYMNYSGEAIGPLAAYYQVPLRHILLIYDDTSLPNGVLRLQKKGGHGRHNGLQNVIEHLDGRREFPRLSIGIGSPPGKMDPRAFLLQKFSSEERVQIDTALEQGVDAVRTLVLKGFSGSTERFNLVQKYKFHRV”, for which the “soluble on expression in E. coli” value is recorded as “soluble”.

With “MIFVLDVGNTNAVLGVFEEGELRQHWRMETDRHKTEDEYGMLVKQLLEHEGLSFEDVKGIIVSSVVPPIMFALERMCEKYFKIKPLVVGPGIKTGLNIKYENPREVGADRIVNAVAGIHLYGSPLIIVDFGTATTYCYINEEKHYMGGVITPGIMISAEALYSRAAKLPRIEITKPSSVVGKNTVSAMQSGILYGYVGQVEGIVKRMKEEAKQEPKVIATGGLAKLISEESNVIDVVDPFLTLKGLYMLYERNANLQHEKGEHHHHHH”, the “soluble on expression in E. coli” value was “soluble”.

With “VSGAHTDVRPELRKLAQAILDGIDPAVRVAAAMASGGGPGTGKCQQVWCPLCALAALVTGEQHPLLTVIADHSLALLEVIRAIVDDIDRSAKPPPEGPPGGGQTGASGGENTNGEGSMKSHYQAIPVTIEE”, the “soluble on expression in E. coli” value was “not soluble”. As to “HTLNKALADTRANLTESVGNAGEVLHDITGVVSTPMPSENDSENLFDSVSNYPTGNKSDTHNAFGSSGKTAPMPYQSAYAPQQRSLSLRESRAAMNTYAELYKKTDDIDLELSRFEQARFGNMPSETPAPQTDTPLSDGIPSQSELPPLGFAIAQLLGIYILAQAEDSLLLIDMHAAAERVNYEKMKRQRQENGNLQSQRLLIPVTFAASHEECAALADYAETLAGFGLELSDMGGNTLAVRAVPAMLGKADVVSLAKDVLNELAQVGSSQTIEEHENRILATMSCHGSIRAGRRLTLPEMNALLRDMENTPRSNQCNHGRPTWVKLTLKELDALFLRGQ”, the “soluble on expression in E. coli” value is recorded as “not soluble”. Regarding “MRVSCVYATASRWGGPPVASEVRGDAAISTTPDAAPGLAARRRRILFVAEAVTLAHVVRPFALAQSLDPSRYEVHFACDPRYNQLLGPLPFRHHAIHTIPSERFFGNLTQGRFYAMRTLRKYVEADLRVLDEIAPDLVVGDLRISLSVSARLAGIPYIAIANAYWSPYAQRRFPLPDVIWTRLFGVRLVKLLYRLERPLLFALQCMPLNWVRRRHGLSSLGWNLCRIFTDGDHTLYADVPELMPTYDLPANHEYLGPVLWSPAGKPPTWWDSLPTDRPIVYATLGTSGGRNLLQLVLNALAELPVTVIAATAGRSDLKTVPANAFVADYLPGEAAAARSAVVVCNGGSLTTQQALVAGVPVIGVAGNLDQHLNMEAVERAGAGVLLRTERLKSQRVAGAVMQVISRSEYRQAAARLADAFGRDRVGFPQHVENALRLMPENRPRTWLAS”, the “soluble on expression in E. coli” value is on record as “not soluble”. With “MADLSFIEDTVAFPEKEEDEEEEEEGVEWGYEEGVEWGLVFPDANGEYQSPINLNSREARYDPSLLDVRLSPNYVVCRDCEVTNDGHTIQVILKSKSVLSGGPLPQGHEFELYEVRFHWGRENQRGSEHTVNFKAFPMELHLIHWNSTLFGSIDEAVGKPHGIAIIALFVQIGKEHVGLKAVTEILQDIQYKGKSKTIPCFNPNTLLPDPLLRDYWVYEGSLTIPPCSEGVTWILFRYPLTISQLQIEEFRRLRTHVKGAELVEGCDGILGDNFRPTQPLSDRVIRAAFQLEHHHHHH”, the “soluble on expression in E. coli” value is “soluble”.

With “MAHHHHHHMEPHMTSLVLRRDLSLEVPKLLIGAVQPYQTLAGPALTTSFLHQPDLLPFQRTAFSHAAVAPLYFHTLLHTLAEFAETPRAVQYSAVKLRHAPKADFWDSVGTLNCFYYSAHAPYGAPVEASVLDQHPAMGAVELVRPGHRMESDVKLTLFNDSHQPIASMLMTGPNGAPRETDDDAVESSQGTSSTSPHARTAFPYVAPPTKETTSASDCLSAVMIGGTRVYGGLYGDLMPMESGGGFGQRACYRVEDAAAYSPSLDARSRVSGTEAAAGERTASSSASTVMPPWVLYDCVQRFFLRLHRSGIFGGDAAVAPTEGWRVSAHHVVQTEDAVFGVPVEVVCAVPRVYPSYRLPPWRHRLGLPAIPNGAPPCVCLRCETRQGGRLVSTGVYFFNRW”, the “soluble on expression in E. coli” value is on record as “soluble”.

“NEPVAVIGVGCRFPGDIDGPERLWDFLTEKKCAITAYPDRGFTNAGTFAESGGFLKDVAGFDNRFFDIPPDEALRMDPQQRLLLEVSWEALEHAGIIPESLRLSRTGVFVGVSSTDYVRLVSASAQQKSTIWDNTGGSSSIIANRISYFLDIQGPSIVIDTACSSSLVAVHLACRSLSTWDCDIALVGGTNVLISPEPWGGFREAGILSQTGCCHAFDKSADGMVRGEGCGVIVLQRLSDARLEGRRILAILTGSAVNQDGKSNGIMAPNPSAQIGVLENACKSARVDPLEIGYVEAHGTGTSLGDRIEAHALGMVFGRKRPGSGPLMIGSIKPNIGHLEGAAGIAGLIKAVLMVERGSLLPSGGFTEPNPAIPFTELGLRVVDELQEWPVVAGRPRRAGVSSFGFGGTNAHVIVEEA”: the “soluble on expression in E. coli” value was “soluble”.

Regarding “MSLAYISLKSNLENPKYSLNVAHLYGDLMNTYGDNGNILMLKYVGEKLGAEMTFNIVSLGDTFAKEDYDLVFWGGGQDYEQEIIADQSLIDLSAPLKDYIESEKPLLAICGGYQMLGQYYVNSEGTKIQGTGILGHYTENLRTDRFIGDIETHNEEFGETYYGFENHSGITYLSDDEKPLGTVVYGGGNNPDDQTEGLIYKNTFGTYFHGPILSRNARLAYRLVTTALYQKYGEEIQLPAFEEILADEDKGQQIGDLKRKVEKEGHHHHHH”, the “soluble on expression in E. coli” value is reported as “soluble”.

Turning to “MGSDKIHHHHHHMATTTIYEDLSAAYDLENMQALMATKDLLGAMLRIHFILEAFLDIWCNKITNCEDFFDLKRFTSFDTKLEISKKLGLPSELAVVFKLFNKIRNKFAHRPNYVICSNDLDNIHQAINQINTHDNHSKFTMIVFNEREIRWDTPDIPIIDSLLLNYFTLSQKVNDVFANEFSKRNISFTIQGQQA”, the “soluble on expression in E. coli” value is “not soluble”. Take “MSQIAGYFSSDSGVYPNPVKDVLNIKHEGDFGVRIFDFSGRLVLSMENTRMIGVKVLTAGAYVIKLMTQGSTPAERFIKL”: the “soluble on expression in E. coli” value is “not soluble”. On to “ATEEEYQLFLEPYLQETRLGAYDFPLFSTIFKAFSKKGSFKSLIDPYCFGQALSNGRAITFVVTHDIPNNDVFLDLIMDEEDEWIAYAYILGRDGGVPLVYTDLDTSGIKNKNGKPRWKDAWNDPRMAKMIAFHNVTHGESMTVLEGNDDMLVLKRGEKGIVVLNKSTRAQSLSLKTECDWFDLMSDQSVKAGIELKVPAKSFMLLVQK”, for which the “soluble on expression in E. coli” value is recorded as “not soluble”. On to “MSLKLIGIVGSNADSSYNRLLLQYIGKEFYKMFDLEILEIKDIPMFNQSKDQTNSVLIQNMNRKILQADGVIIATPEHNHTIPAGLKSVLEWLSFKIHPLENKPVMIVGCSYYDQGTSRAQLHLRQILDAPGVNAIVMPGNEFLLGKAKEAFDENGNLIAEGTRQFLESTLQKFVEFIDVISKLEGAKPKDLPEDLHAKGTIETTIEGVDMAADDWVEQAAEAVQAVEGDTYVKLDRGILTVDQLNYFLKSMPMELTYADSNNQFLYYNKKMAAEEMFAKRQPGQVGNPLANCHPPKALKNVEWVIQQLRSGKTDAIRVHVPMHGPDTYVVHNYQAMYDDNGNYAGINEYILDFKPIVDWYLKQTGQELVGGKNVDAVSGASKKEAPETADSVSSASVHEEESATEKPTVDSVSSASIKEEGHHHHHH”, for which the “soluble on expression in E. coli” value is “soluble”. Turning to “SLSMVLLRGRLLSFRRAPLSIDDTQSYLYIEDGGLLLENGRIAAIGEYADIRETAPEDVEEKDHRPHLIVPGLIDMHLHFPQMQVIGSYAANLLEWLNTYTFPEECRFVESAHAQRIATHFYDELLRHGTTTAAAYCSVHKTSADAFFTEAMKRNMLMIGGKVMMDRNAPQGLLDTPETSYDETRQVIADWHGRGRNHVAITPRFAITSTPKQMEAAQALAQEFPDLFIQTHLSENLDEIKYTCELYPEATDYTDIYVRYGLMGNKTLLGHAIHLSDREADVLSETGAVAVHCPTSNLFIGSGLFPMKKLQRREKPVRIAVATDIGGGSSYSMLRTMDEAYKIQQLLGERLNPLESWYLMTRGNAEALSMVDRIGTLEAGTDADITVLNASSTPAMALKMEVVKSLTEELFLMLTMGDDRTVVETYVAGRAMKSVLA”, the “soluble on expression in E. coli” value is on record as “not soluble”.
